Reference: patent publication US20250222128A1, “ANTIBODY DRUG-CONJUGATES TARGETING C-MET AND METHODS OF USE THEREOF” (Zymeworks BC Inc., priority 2022, published 2025)
Entries after “also recorded” stand apart in the source; their conditions may differ.

Tests used:
Type in all cases: cell-based
[1] = test system: AKT phosphorylation in H596 lung cancer cells; assay: cMet pathway agonism by Phospho-AKT ELISA; conditions: 100 nM, up to 60 minutes, FIG. 5A
Method: (§1) cMet pathway agonism of the anti-cMet antibody variant v17427 (HetFc, unmodified hinge) and ADCs comprising variant v17427 stochastically cysteine-conjugated to Drug-Linker 001 or MCvcPABC-MMAE at DAR 4 was assessed by cell proliferation and ELISA to measure for AKT phosphorylation as a downstream indicator of cMET activation.
(§2) Phospho-AKT ELISA: Briefly, H441 or H596 lung cancer cells were detached with Cell Dissociation Buffer, seeded in 24-well tissue culture plates with RPMI-1640+10% FBS at a density of 50,000 cells/well, and incubated overnight (37° C., 5% CO2). Cells were then serum starved overnight (37° C., 5% CO2) by replacing the complete growth medium with serum-free RPMI-1640. […] Lysate protein concentration was assessed by a BCA protein assay (Thermo Fisher Scientific Inc., Cat. No. 23223 and 23224). Phospho-AKT levels in 10 μg of lysate was assessed using the PathScan® Phospho-Akt1 (Ser473) Sandwich ELISA Kit (Cell Signaling Technology, Cat. No. 7160C) as per manufacturer's instructions. Absorbance at 450 nm was measured using a Synergy™ H1 microplate (BioTek Instruments, Winooski, VT). Fold AKT phosphorylation was calculated by subtracting background A450 nm signal from all wells using signal blank wells, and then normalizing to the A450 nm signal of untreated cells at each corresponding timepoint. […]

H596 lung cancer cells = assay: cMet pathway agonism by cell proliferation; conditions: serum starved cells; titration of test article; 6 days; FIG. 4 and FIG. 6
Method: as §1
Cell proliferation: Briefly, H596 lung cancer cells were serum starved overnight (37° C., 5% CO2) by replacing the complete growth medium with serum-free RPMI-1640 (Thermo Fisher Scientific Inc., Waltham, MA; Cat. No. A1049101). Cells were then detached with Cell Dissociation Buffer (Thermo Fisher Scientific Inc., Cat. No. 13151014), resuspended in RPMI-1640 supplemented with 1% FBS (v/v) (Thermo Fisher Scientific Inc., Cat. No. 12483-020) and seeded in 384-well tissue culture plates at a density of 1,000 cells/well. […] After incubation, CellTiter-Glo® reagent (Promega Corporation, Madison, WI; Cat. No. G7570) was spiked in all wells and luminescence corresponding to ATP present in each well was measured using a Synergy™ H1 microplate (BioTek Instruments, Winooski, VT). Based on untreated cells (no test article added), % viability values were calculated using ATP measurement RLU values (Relative Light Units) and plotted against test article concentration using GraphPad Prism 8 software (GraphPad Software, San Diego, CA). […]

[2] = test system: AKT phosphorylation in H441 lung cancer cells; assay: cMet pathway agonism by Phospho-AKT ELISA; conditions: 100 nM, up to 60 minutes, FIG. 5B and FIG. 7
Method: as §1, §2

B1: v17429: control antibody, bivalent version of the anti-cMet antibody MetMab (onartuzumab), HetFc (antibody, chains of the INN, looked up, V domains shown)
VH: EVQLVESGGGLVQPGGSLRLSCAASGYTFTSYWLHWVRQAPGKGLEWVGMIDPSNSDTRFNPNFKDRFTISADTSKNTAYLQMNSLRAEDTAVYYCATYRSYVTPLDYWGQGTLVTVSS
VL: DIQMTQSPSSLSASVGDRVTITCKSSQSLLYTSSQKNYLAWYQQKPGKAPKLLIYWASTRESGVPSRFSGSGSGTDFTLTISSLQPEDFATYYCQQYYAYPWTFGQGTKVEIK
modifications: bivalent IgG, HetFc
For B1, the AKT phosphorylation [1] was “strong AKT phosphorylation”, the “H596 proliferation compared to untreated controls” value (H596 lung cancer cells) was “dose-dependent increase in H596 proliferation; also recorded: strong dose-dependent increase in proliferation” and the AKT phosphorylation [2] was “strong AKT phosphorylation; also recorded: strongly induced phosphorylation”.
